Laboratory results from US7026446.
Several values for one entry are separate records, joined by “and”; a condition that tells them apart may be missing. Equal entries are not always repeated.

Key:
[1] = target: biotinylated mouse anti dengue IgG (clone 13C11); test: Dengue IgM indirect ELISA: Prep A 1/100 premixed with 13C11-Biotin 1/10,000, dengue 2 antigen plate, HRP sheep anti Human IgM
[2] = target: biotinylated mouse anti dengue IgG (clone 13C11); test: Dengue IgM indirect ELISA: Prep A 1/1000 premixed with 13C11-Biotin 1/10,000, dengue 2 antigen plate, HRP sheep anti Human IgM
[3] = target: biotinylated mouse anti dengue IgG (clone 13C11); test: Dengue IgM capture ELISA: Prep A […] premixed with 13C11-Biotin 1.6 µg/ml, sheep anti human IgM strips, dengue antigen with anti dengue-HRP tracer
[4] = target: biotinylated mouse anti dengue IgG (clone 13C11); test: Dengue IgM indirect ELISA: Prep A 1/10 premixed with 13C11-Biotin 1/10,000, dengue 2 antigen plate, HRP sheep anti Human IgM
[5] = target: biotinylated mouse anti dengue IgG (clone 13C11); test: Dengue IgM capture ELISA: Prep B 1.0 µg/ml premixed with 13C11-Biotin 1.6 µg/ml, sheep anti human IgM strips, dengue antigen with anti dengue-HRP tracer

Chain of Streptavidin-CH3µ Preparation A (chain): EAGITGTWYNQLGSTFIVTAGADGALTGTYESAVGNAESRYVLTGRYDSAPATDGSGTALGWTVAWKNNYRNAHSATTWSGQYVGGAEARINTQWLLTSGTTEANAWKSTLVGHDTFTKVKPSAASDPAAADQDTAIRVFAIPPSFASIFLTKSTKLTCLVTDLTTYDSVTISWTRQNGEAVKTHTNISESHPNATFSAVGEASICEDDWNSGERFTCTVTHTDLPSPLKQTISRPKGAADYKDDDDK
Chain of Streptavidin-CH3µ Preparation B (chain): as above

| A450 [1] | A450 [2] | A450 [3] | A450 [4] | A450 [5] | Substance |
| --- | --- | --- | --- | --- | --- |
| 1.07 absorbance and 1.08 absorbance | 0.212 absorbance and 0.183 absorbance | 1.91 absorbance and 1.85 absorbance | 1.19 absorbance and 1.11 absorbance | – | Streptavidin-CH3µ Preparation A |
| – | – | – | – | 1.2 absorbance and 1.34 absorbance | Streptavidin-CH3µ Preparation B |
